Assays:
[1] = biological target: FcγRIIA R167 (human) (UniProt P12318); experiment: SPR
[2] = biological target: FcγRIIB/C (human) (UniProt P31994); experiment: SPR
[3] = biological target: Gama Fc Receptor 1 (CD64) (human) (UniProt P12314); experiment: SPR
[4] = biological target: C1q (human) (UniProt P02745); experiment: ELISA; C1q binding ELISA: plates coated with 5 ug/mL CA521 subtypes or OPDIVO (IgG4), fourfold serial dilutions starting at 40 ug/mL, 2 h at 37 C, C1q detected by HRP anti-human C1q; x axis of the figure: antibody concentration (nM); duplicate
C1q (human), sequence (P02745 23-245, chain 1 of 3): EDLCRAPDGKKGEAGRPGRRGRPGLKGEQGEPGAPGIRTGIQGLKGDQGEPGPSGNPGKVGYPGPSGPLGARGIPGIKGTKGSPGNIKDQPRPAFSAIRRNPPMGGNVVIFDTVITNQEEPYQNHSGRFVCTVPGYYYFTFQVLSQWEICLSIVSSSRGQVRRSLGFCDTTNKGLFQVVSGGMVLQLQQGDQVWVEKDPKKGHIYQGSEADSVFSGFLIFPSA
C1q (human), sequence (P02746 28-253, chain 2 of 3, further chain): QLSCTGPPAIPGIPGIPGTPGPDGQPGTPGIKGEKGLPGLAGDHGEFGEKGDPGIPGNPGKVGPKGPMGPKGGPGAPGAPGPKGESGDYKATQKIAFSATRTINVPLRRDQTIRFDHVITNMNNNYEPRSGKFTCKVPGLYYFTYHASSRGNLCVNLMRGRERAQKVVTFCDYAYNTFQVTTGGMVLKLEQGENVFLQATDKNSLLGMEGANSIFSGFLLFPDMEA
C1q (human), sequence (P02747 29-245, chain 3 of 3, further chain): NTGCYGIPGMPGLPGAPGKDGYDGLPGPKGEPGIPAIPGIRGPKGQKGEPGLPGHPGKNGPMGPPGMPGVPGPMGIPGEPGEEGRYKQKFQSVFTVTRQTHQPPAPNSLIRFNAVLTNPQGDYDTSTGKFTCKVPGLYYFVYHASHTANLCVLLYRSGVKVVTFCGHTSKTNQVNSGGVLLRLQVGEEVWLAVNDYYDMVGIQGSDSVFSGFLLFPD

FcγRIIB/C (human), sequence (P31994 43-217): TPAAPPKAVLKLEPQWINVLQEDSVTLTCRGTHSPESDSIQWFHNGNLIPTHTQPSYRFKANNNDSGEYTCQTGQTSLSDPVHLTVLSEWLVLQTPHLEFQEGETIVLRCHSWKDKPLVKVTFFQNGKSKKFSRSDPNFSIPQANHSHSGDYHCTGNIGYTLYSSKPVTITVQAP
Gama Fc Receptor 1 (CD64) (human), sequence (P12314 16-374): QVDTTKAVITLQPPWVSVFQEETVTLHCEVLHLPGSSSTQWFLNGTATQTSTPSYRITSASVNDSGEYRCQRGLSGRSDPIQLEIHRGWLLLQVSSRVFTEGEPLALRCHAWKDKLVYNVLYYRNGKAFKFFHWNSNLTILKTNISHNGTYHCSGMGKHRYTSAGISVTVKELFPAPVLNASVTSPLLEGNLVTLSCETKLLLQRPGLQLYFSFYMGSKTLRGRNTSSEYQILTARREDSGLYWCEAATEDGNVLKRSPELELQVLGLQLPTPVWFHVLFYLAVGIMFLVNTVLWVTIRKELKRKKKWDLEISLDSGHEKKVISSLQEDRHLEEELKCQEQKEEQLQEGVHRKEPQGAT
FcγRIIA R167 (human), sequence (P12318 34-217 H167R): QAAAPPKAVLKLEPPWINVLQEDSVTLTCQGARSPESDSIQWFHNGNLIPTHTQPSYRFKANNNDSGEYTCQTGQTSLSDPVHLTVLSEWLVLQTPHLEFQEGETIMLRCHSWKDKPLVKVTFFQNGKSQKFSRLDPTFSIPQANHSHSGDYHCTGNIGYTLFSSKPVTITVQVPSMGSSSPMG

Row | Substance | Kd [1] | Kd [2] | Kd [3] | IC50 [4]
1 | CA521(IgG1) (from UniProt P01857) | 5110 nM | 20400 nM | 3.12 nM | –
2 | Opdivo (IgG4) (antibody) | – | – | – | 35.9 nM

Source: paper PMC8065039
